± gives the uncertainty stated by the source.
Test: self-splicing fitness, log relative to wild type (ln ratio); higher = more splicing; Tetrahymena group I intron in knt gene, E. coli kanamycin selection, DiMSum; sequences stand for … in CUCUCU…GGAGGGAAAAGUUAUCAGGCAUGCACCUGGUAGCUAGUCUUUAAACCAAUAGAUUGCAUCGGUUUAAAAGGCAAGACCGUCAAAUUGCGGGAAAGGGGUCAACAGCCGUUCAGUACCAAGUCUCAGGGGAAACUUUGAGAUGGCCUUGCAAAGGGUAUGGUAAUAAGCUGACGGACAUGGUCCUAACCACGCAGCCAAGUCCUAAGUCAACAGAUCUUCUGUUGAUAUGGAUGCAGUUCACAGACUAAAUGUCGGUCGGGGAAGAUGUAUUCUUCUCAUAAGAUAUAGUCGGACCUCUCCUUAAUGGGAGCUAGCGGAUGAAGUGAUGCAACACUGGAGCCGCUGGGAACUAAUUUGUAUGCGAAAGUAUAUUGAUUAGUUUUGGAGUACUCGUGGUCG
Method in brief: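 DiMSum derived fitness as the error-weighted combination of fold changes across replicates, kanamycin versus no kanamycin, normalised to wild type. E. coli BL21(DE3) held the library, which randomised all eight P1ex-region intron nucleotides within the knt kanamycin-resistance gene on pET-22b(+). Six replicate transformations grew overnight at 37°C or 30°C on LB agar with or without 25 μg/mL kanamycin, also containing 100 μg/mL carbenicillin, 50 μM IPTG and 0.2% rhamnose, and pooled colonies were amplicon-sequenced on an Illumina HiSeq 2500.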

Row | Sequence | self-splicing fitness (ln) (30 °C) | self-splicing fitness (ln) (37 °C)
1 | AGAUAGCAAUAUUACGUAUU | -2.63 ± 0.14 | -1.35 ± 0.12
2 | AGAUAGCAAUAUUACGUCGU | -1.21 ± 0.082 | -0.136 ± 0.099
3 | AGAUAGCAAUAUUACGUGCG | -1.19 ± 0.06 | -0.409 ± 0.081
4 | AGAUAGCAAUAUUACGUUCC | -1.62 ± 0.2 | -1.48 ± 0.23
5 | AGAUAGCAAUAUUACGUUCG | -0.335 ± 0.1 | 0.123 ± 0.14
6 | AGAUAGCAAUAUUACGUUCU | -2.38 ± 0.14 | -2.02 ± 0.17
7 | AGAUAGCAAUAUUACGUUGA | -3.51 ± 0.24 | -1.5 ± 0.14
8 | AGCAAGCAAUAUUACGAACA | -0.765 ± 0.099 | -0.407 ± 0.12
9 | AGCAAGCAAUAUUACGAAUC | -4.48 ± 0.42 | -1.81 ± 0.2
10 | AGCAAGCAAUAUUACGACCC | -0.234 ± 0.18 | -0.196 ± 0.25
11 | AGCAAGCAAUAUUACGACGA | -0.884 ± 0.14 | -0.398 ± 0.16
12 | AGCAAGCAAUAUUACGAGCG | 0.283 ± 0.061 | -0.223 ± 0.076
13 | AGCAAGCAAUAUUACGAUAU | -2.16 ± 0.13 | -1.51 ± 0.11
14 | AGCAAGCAAUAUUACGAUUC | -2.18 ± 0.13 | -1.04 ± 0.15
15 | AGCAAGCAAUAUUACGCAAC | -3.99 ± 0.31 | 
16 | AGCAAGCAAUAUUACGCACU | -1.89 ± 0.11 | -1.37 ± 0.14
17 | AGCAAGCAAUAUUACGCCGA | -0.81 ± 0.15 | -0.63 ± 0.17
18 | AGCAAGCAAUAUUACGCCGC | -2.89 ± 0.45 | -2.68 ± 0.45
19 | AGCAAGCAAUAUUACGCCUA | -0.835 ± 0.08 | -0.537 ± 0.084
20 | AGCAAGCAAUAUUACGCGCG | -1.54 ± 0.072 | -0.145 ± 0.09
21 | AGCAAGCAAUAUUACGCGGA | -2.04 ± 0.13 | -0.823 ± 0.099
22 | AGCAAGCAAUAUUACGCUAU | -2.4 ± 0.1 | -2.25 ± 0.15
23 | AGCAAGCAAUAUUACGCUCG | -2.82 ± 0.27 | 
24 | AGCAAGCAAUAUUACGGAAA | -3.46 ± 0.18 | -1.03 ± 0.11
25 | AGCAAGCAAUAUUACGGACU | -0.137 ± 0.084 | -0.455 ± 0.094
26 | AGCAAGCAAUAUUACGGAUU | -1.94 ± 0.07 | -0.407 ± 0.084

Row | Sequence | self-splicing fitness (ln) (30 °C) | self-splicing fitness (ln) (37 °C)
27 | AGCAAGCAAUAUUACGGCUG | -0.939 ± 0.077 | -1.4 ± 0.13
28 | AGCAAGCAAUAUUACGGUAG | -3.4 ± 0.14 | -2.75 ± 0.15
29 | AGCAAGCAAUAUUACGUCGC |  | -0.083 ± 0.23
30 | AGCAAGCAAUAUUACGUGAG | -2.58 ± 0.087 | -1.44 ± 0.089
31 | AGCAAGCAAUAUUACGUGAU | -2.1 ± 0.072 | -1.32 ± 0.08
32 | AGCAAGCAAUAUUACGUUUC | -4.44 ± 0.25 | -2.09 ± 0.15
33 | AGCCAGCAAUAUUACGAAUU | -3.14 ± 0.15 | -1.44 ± 0.11
34 | AGCCAGCAAUAUUACGAGUU | -1.84 ± 0.086 | -0.293 ± 0.081
35 | AGCCAGCAAUAUUACGCACC | -0.939 ± 0.18 | -1.12 ± 0.18
36 | AGCCAGCAAUAUUACGCCAU | -1.5 ± 0.2 | -1.89 ± 0.32
37 | AGCCAGCAAUAUUACGCGAG | -1.65 ± 0.13 | -1.29 ± 0.16
38 | AGCCAGCAAUAUUACGCGUC | -2.8 ± 0.13 | -1.23 ± 0.12
39 | AGCCAGCAAUAUUACGCUUC | -3.53 ± 0.22 | -3.48 ± 0.29
40 | AGCCAGCAAUAUUACGCUUG | -3.52 ± 0.17 | -1.58 ± 0.17
41 | AGCCAGCAAUAUUACGGAGG | -3.01 ± 0.14 | -1.8 ± 0.26
42 | AGCCAGCAAUAUUACGGCCU | -2.07 ± 0.14 | -0.992 ± 0.15
43 | AGCCAGCAAUAUUACGGCUA | -2.42 ± 0.15 | -0.727 ± 0.11
44 | AGCCAGCAAUAUUACGGGAU | -4 ± 0.17 | -2.05 ± 0.12
45 | AGCCAGCAAUAUUACGGUAC | -2.97 ± 0.2 | -1.24 ± 0.13
46 | AGCCAGCAAUAUUACGUAAC | -2.67 ± 0.1 | -2.04 ± 0.2
47 | AGCCAGCAAUAUUACGUCCG | -3.12 ± 0.24 | -1.71 ± 0.29
48 | AGCCAGCAAUAUUACGUGAC | -3.29 ± 0.17 | -2.05 ± 0.19
49 | AGCCAGCAAUAUUACGUGGA | -3.81 ± 0.18 | -2.65 ± 0.14
50 | AGCCAGCAAUAUUACGUGGG | -3.16 ± 0.13 | -1.3 ± 0.11
51 | AGCCAGCAAUAUUACGUGUU | -3.62 ± 0.11 | -1.56 ± 0.087
52 | AGCCAGCAAUAUUACGUUAG | -3.07 ± 0.14 | -2.28 ± 0.16

Row | Sequence | self-splicing fitness (ln) (30 °C) | self-splicing fitness (ln) (37 °C)
53 | AGCCAGCAAUAUUACGUUGC | -2.87 ± 0.18 | -3.28 ± 0.27
54 | AGCGAGCAAUAUUACGAAGC | -3.45 ± 0.43 | -2.17 ± 0.25
55 | AGCGAGCAAUAUUACGAAUU |  | -1.41 ± 0.34
56 | AGCGAGCAAUAUUACGACAA | -3.33 ± 0.41 | -1.23 ± 0.3
57 | AGCGAGCAAUAUUACGACGU | -1.74 ± 0.083 | -0.339 ± 0.11
58 | AGCGAGCAAUAUUACGAGCA | -0.722 ± 0.11 | -0.526 ± 0.11
59 | AGCGAGCAAUAUUACGCAAA | -3.01 ± 0.36 | -2.52 ± 0.48
60 | AGCGAGCAAUAUUACGCAGC | -4.05 ± 0.46 | 
61 | AGCGAGCAAUAUUACGCCAA | -3.98 ± 0.25 | -1.56 ± 0.16
62 | AGCGAGCAAUAUUACGCCCA | -2.07 ± 0.39 | -1.52 ± 0.34
63 | AGCGAGCAAUAUUACGCGGG | -2.55 ± 0.24 | -2.54 ± 0.36
64 | AGCGAGCAAUAUUACGCUAA | -1.62 ± 0.25 | -1.85 ± 0.3
65 | AGCGAGCAAUAUUACGCUCU | -3.64 ± 0.35 | -2.61 ± 0.29
66 | AGCGAGCAAUAUUACGGCUA | -0.634 ± 0.19 | -0.479 ± 0.13
67 | AGCGAGCAAUAUUACGGGCC | -3.58 ± 0.47 | -2.88 ± 0.43
68 | AGCGAGCAAUAUUACGUAUU | -3.54 ± 0.17 | -1.79 ± 0.16
69 | AGCGAGCAAUAUUACGUCGA | -2.82 ± 0.27 | -2.3 ± 0.28
70 | AGCGAGCAAUAUUACGUUAC | -3.84 ± 0.21 | -2.26 ± 0.23
71 | AGCGAGCAAUAUUACGUUGA |  | -2.11 ± 0.16
72 | AGCGAGCAAUAUUACGUUGC |  | -3.69 ± 0.42
73 | AGCUAGCAAUAUUACGACAG | -2.36 ± 0.21 | -1.64 ± 0.24
74 | AGCUAGCAAUAUUACGACAU | -0.509 ± 0.012 | -0.147 ± 0.032
75 | AGCUAGCAAUAUUACGACCA | -0.512 ± 0.17 | -0.124 ± 0.17
76 | AGCUAGCAAUAUUACGAGAG | -2.83 ± 0.15 | -3.13 ± 0.28
77 | AGCUAGCAAUAUUACGAGCG | -0.417 ± 0.085 | -0.0421 ± 0.11
78 | AGCUAGCAAUAUUACGAGGG | -3.75 ± 0.21 | -1.34 ± 0.14
